No end group written: not given here.

Assay [1] deals with ROS-GC1 peptide 1 peptide 1 (Bos taurus) (UniProt P55203). The assay is described as follows: fluorescence.
Assay [2] concerns the target myristoylated guanylyl cyclase-activating protein 2 (GCAP-2), bovine (bovine) (UniProt P51177). Description: SPR; GCAP-2 immobilised by amine coupling on 2D CMD sensor slides; peptides injected at 0.5-40 uM (peptide 3: 5-40 uM); 20 mM HEPES, 0.05% Tween, pH 7.5, 22°C, 30 ul/min; two-state model with equimolar binding; calcium not controlled, ~2 uM.
Assay [3] has the same target. The assay is described as follows: other fluorescence titration; GCAP-2 mixed with increasing concentrations of peptide in 20 mM HEPES pH 7.5, 20°C; excitation 280 nm, emission 350 nm; calcium not controlled, ~2 uM.
Assay [4] deals with T1, GCAP-2 (Bos taurus, UniProt P51177).
T1 construct: made in house; host or cells: E. coli BL21 (DE3), vector pET-11a, co-expressed with yeast N-myristoyltransferase I (pBB131)
T1 sequence (P51177 1-204): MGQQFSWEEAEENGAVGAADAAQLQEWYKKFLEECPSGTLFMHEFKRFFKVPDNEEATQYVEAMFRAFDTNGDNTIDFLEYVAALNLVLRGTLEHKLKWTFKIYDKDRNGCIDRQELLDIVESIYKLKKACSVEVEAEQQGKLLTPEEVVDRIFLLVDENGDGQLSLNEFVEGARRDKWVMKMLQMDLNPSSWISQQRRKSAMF
Description: Surface plasmon resonance (SPR), GCAP-2/ROS-GC peptide interaction. Type of assay: binding, bovine.

For assay [5], the target named is T1, GCAP-2. The assay is described as follows: Fluorescence spectroscopy titration of ROS-GC peptides to GCAP-2. More on the design: species or system bovine. As to conditions: excitation 280 nm, emission 350 nm, 20 mM HEPES pH 7.5, 20°C, calcium ~2 μM, read-out: KD1 (first binding event).
Description: Fluorescence measurements were carried out with a Jasco Spectrofluorometer FP-8200, equipped with a Jasco MCB-100 Mini Circulation Bath (20°C, xenon lamp, data interval 0.5 nm, accumulation number 3). The excitation wavelength was 280 nm, fluorescence emission was recorded at 350 nm to exclude self-fluorescence of non-bound peptide. […] As a negative control, separate recordings were performed with N-acetyl-L-tryptophanamide or N-acetyl-L-tyrosinamide, respectively.
A wavelength of 350 nm was chosen to rule out that changes in fluorescence originate from an increased concentration of non-bound peptide.

ROS-GC1 peptide 1 peptide 1 (Bos taurus), sequence (P55203 57-1110): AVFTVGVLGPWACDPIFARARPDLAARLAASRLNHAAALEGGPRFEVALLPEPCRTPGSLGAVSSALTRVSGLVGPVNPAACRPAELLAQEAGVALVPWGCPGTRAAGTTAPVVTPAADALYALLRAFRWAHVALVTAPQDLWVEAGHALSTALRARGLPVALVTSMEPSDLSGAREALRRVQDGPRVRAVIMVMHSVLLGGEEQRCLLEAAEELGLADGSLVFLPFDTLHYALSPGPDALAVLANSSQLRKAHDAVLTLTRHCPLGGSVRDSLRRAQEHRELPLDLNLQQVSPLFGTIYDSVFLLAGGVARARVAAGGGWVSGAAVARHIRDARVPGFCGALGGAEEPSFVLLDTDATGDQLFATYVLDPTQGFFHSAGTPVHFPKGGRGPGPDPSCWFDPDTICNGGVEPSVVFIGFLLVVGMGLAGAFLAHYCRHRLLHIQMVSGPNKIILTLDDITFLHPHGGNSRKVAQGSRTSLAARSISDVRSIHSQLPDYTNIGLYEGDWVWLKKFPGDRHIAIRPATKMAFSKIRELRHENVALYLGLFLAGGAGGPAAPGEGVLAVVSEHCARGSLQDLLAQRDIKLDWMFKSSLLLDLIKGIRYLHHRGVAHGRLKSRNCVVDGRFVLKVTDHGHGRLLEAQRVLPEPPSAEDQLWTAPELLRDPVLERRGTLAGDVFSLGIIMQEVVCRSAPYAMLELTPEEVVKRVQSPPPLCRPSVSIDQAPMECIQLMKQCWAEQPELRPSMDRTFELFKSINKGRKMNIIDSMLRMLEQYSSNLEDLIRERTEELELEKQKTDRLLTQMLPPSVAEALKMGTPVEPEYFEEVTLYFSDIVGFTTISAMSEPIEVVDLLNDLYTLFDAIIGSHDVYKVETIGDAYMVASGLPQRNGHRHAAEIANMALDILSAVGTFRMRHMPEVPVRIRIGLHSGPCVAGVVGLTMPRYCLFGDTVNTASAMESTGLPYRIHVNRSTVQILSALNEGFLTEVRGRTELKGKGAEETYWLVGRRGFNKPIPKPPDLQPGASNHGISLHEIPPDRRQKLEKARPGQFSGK

In assay [1], GCAP-2 (from UniProt P51177) displayed a Kd of 244000 nM.

Regarding “ROS-GC1 peptide 2 (aa 942-981), N-terminal extension of peptide 1 with a part of the catalytic domain”, the Kd in assay [2] was determined as 3000 nM. The KD1 (first binding event; set by extrapolation) in assay [3] is 1 µM.

Consider “ROS-GC1 peptide 1 (aa 965-981), postulated GCAP-2 binding motif”, for which the Kd in assay [2] stood at 1120 nM. Moreover, in assay [3], the KD1 (first binding event) amounted to 4.2 µM and the KD2 (second binding event) was determined as 244 µM.

In the case of YRIHVNRSTVQILSALN [Peptide 1], the Kd was found to be 2360 nM in assay [4] and 4200 nM in assay [5].

These data come from article PMC6156451 (Frontiers in Molecular Neuroscience, 2018).
